This data set concerns the molecule itself. Kind of data set: immunoblot of plant extract made without DTT; total protein of RL-treated WT plants extracted without DTT; the legend calls it an immunoprecipitation analysis; dimer and monomer LSD1 detected. In general terms: A western blot detects proteins with antibodies after separation by electrophoresis.

B1: lesion simulating disease 1 (LSD1) (natural protein, UniProt P94077 1-189, looked up)
chain: MKVADMQDQLVCHGCRNLLMYPRGASNVRCALCNTINMVPPPPPPHDMAHIICGGCRTMLMYTRGASSVRCSCCQTTNLVPAHSNQVAHAPSSQVAQINCGHCRTTLMYPYGASSVKCAVCQFVTNVNMSNGRVPLPTNRPNGTACPPSTSTSTPPSQTQTVVVENPMSVDESGKLVSNVVVGVTTDKK
notes: lesion simulating disease 1 (LSD1), C2C2 zinc finger protein with three zinc finger domains, Arabidopsis; detected with LSD1 antibody (Agrisera); source: endogenous, Arabidopsis WT plant total protein extract
The term stoichiometry N denotes a count of units in the complex or per binding partner. Regarding B1, the “stoichiometry N” value is 2.

The values are drawn from article PMC4419654, “LSD1 and HY5 antagonistically regulate red light induced-programmed cell death in Arabidopsis” (Frontiers in Plant Science, 2015).
